# doi:10.1101/2023.02.24.529952 (bioRxiv, 2023)
# B1: CCL25 (ligand)
# chain: QGVFEDCCLAYHYPIGWAVLRRAWTYRIQEVSGSCNLPAAIFYLPKRHRKVCGNPKSREVQRAMKLLDARNKVFAKLHHNTQTFQAGPHAVKKLSSGNSKLSSSKFSNPISSSKRNVSLLISANSGL
# notes: recombinant human CCL25; source: bought: PeproTech
# B2: CCL26 (ligand)
# chain: TRGSDISKTCCFQYSHKPLPWTWVRSYEFTSNSCSQRAVIFTTKRGKKVCTHPRKKWVQKYISLLKTPKQL
# notes: recombinant human CCL26; source: bought: PeproTech
# B3: CCL13 (ligand)
# chain: not shown
# notes: recombinant human CCL13; source: bought: PeproTech
# B4: CXCL14 (ligand)
# chain: SKCKCSRKGPKIRYSDVKKLEMKPKYPHCEEKMVIITTKSVSRYRGQEHCLHPKLQSTKRFIKWYNAWNEKRRVYEE
# notes: recombinant human CXCL14; source: bought: PeproTech
# B5: CXCL13 (ligand)
# chain: VLEVYYTSLRCRCVQESSVFIPRRFIDRIQILPRGNGCPRKEIIVWKKNKSIVCVDPQAEWIQRMMEVLRKRSSSTLPVPVFKRKIP
# notes: recombinant human CXCL13; source: bought: PeproTech
# B6: CCL28 (ligand)
# chain: SEAILPIASSCCTEVSHHISRRLLERVNMCRIQRADGDCDLAAVILHVKRRRICVSPHNHTVKQWMKVQAAKKNGKGNVCHRKKHHGKRNSNRAHQGKHETYGHKTPY
# notes: recombinant human CCL28; source: bought: PeproTech
# B7: CXCL9 (ligand)
# chain: TPVVRKGRCSCISTNQGTIHLQSLKDLKQFAPSPSCEKIEIIATLKNGVQTCLNPDSADVKELIKKWEKQVSQKKKQKNGKKHQKKKVLKVRKSQRSRQKKTT
# notes: recombinant human CXCL9; source: bought: PeproTech
# B8: CCL5 (ligand)
# chain: SPYSSDTTPCCFAYIARPLPRAHIKEYFYTSGKCSNPAVVFVTRKNRQVCANPEKKWVREYINSLEMS
# notes: recombinant human CCL5; source: bought: PeproTech
# B9: CCL11 (ligand)
# chain: not shown
# notes: recombinant human CCL11; source: bought: PeproTech
# B10: CXCL11 (ligand)
# chain: FPMFKRGRCLCIGPGVKAVKVADIEKASIMYPSNNCDKIEVIITLKENKGQRCLNPKSKQARLIIKKVERKNF
# notes: recombinant human CXCL11; source: bought: PeproTech
# B11: IL-27 (complex)
# chain 1: FPRPPGRPQLSLQELRREFTVSLHLARKLLSEVRGQAHRFAESHLPGVNLYLLPLGEQLPDVSLTFQAWRRLSDPERLCFISTTLQPFHALLGGLGTQGRWTNMERMQLWAMRLDLRDLQRHLRFQVLAAGFNLPEEEEEEEEEEEEERKGLLPGALGSALQGPAQVSWPQLLSTYRLLHSLELVLSRAVRELLLLSKAGHSVWPLGFPTLSPQP
# chain 2: RKGPPAALTLPRVQCRASRYPIAVDCSWTLPPAPNSTSPVSFIATYRLGMAARGHSWPCLQQTPTSTSCTITDVQLFSMAPYVLNVTAVHPWGSSSSFVPFITEHIIKPDPPEGVRLSPLAERQLQVQWEPPGSWPFPEIFSLKYWIRYKRQGAARFHRVGPIEATSFILRAVRPRARYYVQVAAQDLTDYGELSDWSLPATATMSLGK
# notes: source: bought: PeproTech
# B12: CCL21 (ligand)
# chain: SDGGAQDCCLKYSQRKIPAKVVRSYRKQEPSLGCSIPAILFLPRKRSQAELCADPKELWVQQLMQHLDKTPSPQKPAQGCRKDRGASKTGKKGKGSKGCKRTERSQTPKGP
# notes: recombinant human CCL21; source: bought: PeproTech
# B13: HCoV-OC43 Nucleocapsid (N) protein (2X-StrepTag tagged) (natural protein)
# chain: MSFTPGKQSSSRASSGNRSGNGILKWADQSDQVRNVQTRGRRAQPKQTATSQQPSGGNVVPYYSWFSGITQFQKGKEFEFVEGQGPPIAPGVPATEAKGYWYRHNRGSFKTADGNQRQLLPRWYFYYLGTGPHAKDQYGTDIDGVYWVASNQADVNTPADIVDRDPSSDEAIPTRFPPGTVLPQGYYIEGSGRSAPNSRSTSRTSSRASSAGSRSRANSGNRTPTSGVTPDMADQIASLVLAKLGKDATKPQQVTKHTAKEVRQKILNKPRQKRSPNKQCTVQQCFGKRGPNQNFGGGEMLKLGTSDPQFPILAELAPTAGAFFFGSRLELAKVQNLSGNPDEPQKDVYELRYNGAIRFDSTLSGFETIMKVLNENLNAYQQQDGMMNMSPKPQRQRGHKNGQGENDNISVAVPKSRVQQNKSRELTAEDISLLKKMDEPYTEDTSEI
# notes: also called rN; HCoV-OC43 rN; source: HEK293-FT, transfected, in crude lysate; not shown: 2X-StrepTag, C-terminal, kept
# Biological target: B13
# Assay: BLI
# Settings: one partner purified
Binder,Kd,koff,kon
B1,610 nM,0.0048 s⁻¹,8300 M⁻¹ s⁻¹
B2,620 nM,0.014 s⁻¹,20000 M⁻¹ s⁻¹
B3,1600 nM,0.025 s⁻¹,19000 M⁻¹ s⁻¹
B4,580 nM,0.0063 s⁻¹,12000 M⁻¹ s⁻¹
B5,140 nM,0.0046 s⁻¹,44000 M⁻¹ s⁻¹
B6,27 nM,0.0015 s⁻¹,60000 M⁻¹ s⁻¹
B7,29 nM,0.0022 s⁻¹,82000 M⁻¹ s⁻¹
B8,56000 nM,0.015 s⁻¹,2100 M⁻¹ s⁻¹
B9,1400 nM,0.021 s⁻¹,17000 M⁻¹ s⁻¹
B10,730 nM,0.012 s⁻¹,18000 M⁻¹ s⁻¹
B11,55 nM,0.0024 s⁻¹,51000 M⁻¹ s⁻¹
B12,290 nM,0.012 s⁻¹,67000 M⁻¹ s⁻¹

# Biological target: T1, CXCL12α (human, UniProt P48061-2 22-89)
# T1 construct: source: bought: PeproTech
# Assay: BLI
# Settings: one partner purified
# T1 sequence (P48061 22-89): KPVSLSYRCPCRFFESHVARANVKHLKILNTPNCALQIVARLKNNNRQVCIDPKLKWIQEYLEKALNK
Binder,Kd,koff,kon
B13,0.46 nM,3.7e-05 s⁻¹,62000 M⁻¹ s⁻¹
